# Reference: publication PMC10732425
# Tests used:
# [1] = molecular target: RhlR:mBTL;PqsE (Pseudomonas aeruginosa (PA14?);Pseudomonas aeruginosa (PA14?)) (UniProt P54292+A0A0H2Z6F6); assay: EMSA; settings: […] (17 of 20 uL): 200 mM KCl, 50 mM Tris-HCl pH 7.5, 250 ug/mL BSA, 50 mM NaCl, 5 nM EDTA, 5 uM MgCl2, 5 uM DTT ([…], RT 15 min
# [2] = molecular target: T1, RhlR:mBTL (Pseudomonas aeruginosa (PA14?)) (UniProt P54292); assay: EMSA; settings: […] (17 of 20 uL): 200 mM KCl, 50 mM Tris-HCl pH 7.5, 250 ug/mL BSA, 50 mM NaCl, 5 nM EDTA, 5 uM MgCl2, 5 uM DTT ([…], RT 15 min
# T1 sequence: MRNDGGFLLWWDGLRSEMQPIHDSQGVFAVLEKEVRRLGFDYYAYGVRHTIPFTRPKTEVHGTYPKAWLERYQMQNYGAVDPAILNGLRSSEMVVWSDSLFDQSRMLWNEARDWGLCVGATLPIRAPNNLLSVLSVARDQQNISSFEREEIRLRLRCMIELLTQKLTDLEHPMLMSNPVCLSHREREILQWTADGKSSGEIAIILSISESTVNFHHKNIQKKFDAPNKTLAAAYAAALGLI
Sequence,binding [1],binding [2]
TGGATGGTCATGTCTGCCCGCGAGAGGGGCTGGATATCGTGTTGACGTTCAAGAAGGTGCATTGCCCTTTCATCCGTGAGAGAGAGTCGGGAGCCGGCGACACTAGGAGTCGGGCCGGGCGCGGACATTGATCCATGACAGGTGGGTATCTTCCCCTGCCAATTCTGGTAGGTGGGGTGCAGGTGTTCGCGCGGAAAAGTCGAACCCGCGCCTACCCCAG (double strand) [hcnA promoter fragment],binds,
TATGGCGTGTCGGGAGAGATCCGCAGTCCTTGGCGGCAGGCGATGCGCAGGCAGGAAGGACGCATCGTTCAGCCAATCTACGCCGTCGACCGGGCGCGACCACTGCTAGAGTTCGCAGGAGGGCTACAGGGGTGTCCTGGCACTGGCGATGCATGGCCCGGTGCCGGTCTATGGCAGCCGCCTGCCGGCCCACTCGTTCGATTGTTACGCTGTCTGTAAT (double strand) [lecB promoter fragment],binds,
GGGGCTTGTGTGGGTCTTGCAGATCGGCCTGCGCAAACGATTGGCGTCCGTGTTCACGCGTAGCCGATGAACACTTTTTAGCCAATTCGAAAGCTAACGGTAACTGCCAGATTTCACAGGACGGGCGGTCGCCTGCGCATAAGCCCCTGCCCGCCCGCGATAAGGCGTGCCAGAGCGGCCGGCGGGGAACAGCGAGGGGTTGGCGGAAAAGGCATGAAAA (double strand) [rhlA promoter fragment],binds,binds
